Assay results: publication doi:10.1101/2025.10.17.683039

How the values were obtained:
[1] = target: Enoyl-CoA carboxylase/reductase (ECR) from Burkholderia ambifaria (Burkholderia ambifaria); assay: SEC; S200 column; each protein alone (1 mL) and a mixture of equal volumes (500 uL each) of the two proteins; peaks compared
[2] = target: Enoyl-CoA carboxylase/reductase (ECR) from Mesorhizobium metallidurans (Mesorhizobium metallidurans); assay: crystal structure; apo ECR, space group C 1 2 1, 100 K, 1.40 Å, molecular replacement with PDB 6NA3
[3] = target: Enoyl-CoA carboxylase/reductase (ECR) from Mesorhizobium metallidurans (Mesorhizobium metallidurans); assay: SEC; S200 column; each protein alone (1 mL) and a mixture of equal volumes (500 uL each) of the two proteins; peaks compared

stoichiometry N [1]	stoichiometry N [2]	stoichiometry N [3]	Substance
4			Enoyl-CoA carboxylase/reductase (ECR) from Burkholderia ambifaria (enzyme)
	2	2	Enoyl-CoA carboxylase/reductase (ECR) from Mesorhizobium metallidurans (enzyme)
